Test results from patent US20220143024A1, “METHODS OF USING IMIPRIDONES” (Board of Regents, The University of Texas System, priority 2019, published 2022).

Assays:
Assay in all cases: BioID-MS
[1] = biological target: POLRMT (human) (UniProt O00411)
[2] = biological target: MRPS36 (human) (UniProt P82909)
[3] = biological target: XPNPEP3 (human) (UniProt Q9NQH7)
[4] = biological target: MRPL47 (human) (UniProt Q9HD33)
[5] = biological target: C2orf56 (human) (UniProt Q7L592)
[6] = biological target: HINT2 (human) (UniProt Q9BX68)
[7] = biological target: C12orf10 (human) (UniProt Q9HB07)
[8] = biological target: MRPS23 (human) (UniProt Q9Y3D9)
[9] = biological target: PYCR2 (human) (UniProt Q96C36)
[10] = biological target: HSPE1 (human) (UniProt P61604)
[11] = biological target: NDUFA7 (human) (UniProt O95182)
[12] = biological target: PNPT1 (human) (UniProt Q8TCS8)
[13] = biological target: NADK2 (human) (UniProt Q4G0N4)
[14] = biological target: PMPCA (human) (UniProt Q10713)
[15] = biological target: EARS2 (human) (UniProt Q5JPH6)
[16] = biological target: MARS2 (human) (UniProt Q96GW9)
[17] = biological target: CDK5RAP1 (human) (UniProt Q96SZ6)
[18] = biological target: MRPS28 (human) (UniProt Q9Y2Q9)
[19] = biological target: MTRF1 (human) (UniProt O75570)
[20] = biological target: DHTKD1 (human) (UniProt Q96HY7)
[21] = biological target: QRSL1 (human) (UniProt Q9H0R6)
[22] = biological target: MRPL12 (human) (UniProt P52815)
[23] = biological target: IDI1 (human) (UniProt Q13907)
[24] = biological target: MRPL14 (human) (UniProt Q6P1L8)
[25] = biological target: HIBCH (human) (UniProt Q6NVY1)
[26] = biological target: COX5B (human) (UniProt P10606)
[27] = biological target: TBRG4 (human) (UniProt Q969Z0)
[28] = biological target: BCS1L (human) (UniProt Q9Y276)
[29] = biological target: RPS15A (human) (UniProt P62244)
[30] = biological target: OXCT1 (human) (UniProt P55809)
[31] = biological target: ECHS1 (human) (UniProt P30084)
[32] = biological target: RNMTL1 (human) (UniProt Q9HC36)
[33] = biological target: PDPR (human) (UniProt Q8NCN5)
[34] = biological target: FOXRED1 (human) (UniProt Q96CU9)
[35] = biological target: NIPSNAP1 (human) (UniProt Q9BPW8)
[36] = biological target: NDUFAF5 (human) (UniProt Q5TEU4)
[37] = biological target: MRPL19 (human) (UniProt P49406)
[38] = biological target: LYRM7 (human) (UniProt Q5U5X0)
[39] = biological target: NDUFAF4 (human) (UniProt Q9P032)
[40] = biological target: GLS (human) (UniProt O94925)
[41] = biological target: POLG2 (human) (UniProt Q9UHN1)
[42] = biological target: AK3 (human) (UniProt Q9UIJ7)
[43] = biological target: NDUFS8 (human) (UniProt O00217)
[44] = biological target: GTPBP3 (human) (UniProt Q969Y2)
[45] = biological target: PYCR1 (human) (UniProt P32322)
[46] = biological target: VARS2 (human) (UniProt Q5ST30)
[47] = biological target: MRPS25 (human) (UniProt P82663)
[48] = biological target: ACADSB (human) (UniProt P45954)
[49] = biological target: PIN1 (human) (UniProt Q13526)
[50] = biological target: MRPS11 (human) (UniProt P82912)
[51] = biological target: GFM1 (human) (UniProt Q96RP9)
[52] = biological target: AFG3L2 (human) (UniProt Q9Y4W6)
[53] = biological target: MRPL40 (human) (UniProt Q9NQ50)
[54] = biological target: MRPS16 (human) (UniProt Q9Y3D3)
[55] = biological target: SHMT2 (human) (UniProt P34897)
[56] = biological target: GPT2 (human) (UniProt Q8TD30)
[57] = biological target: GCDH (human) (UniProt Q92947)
[58] = biological target: CARS2 (human) (UniProt Q9HA77)

- Log2 Fold change (vs control) [1]: 0.57 log2
- Log2 Fold change (vs control) [2]: 0.11 log2
- Log2 Fold change (vs control) [3]: -0.31 log2
- Log2 Fold change (vs control) [4]: -1.94 log2
- Log2 Fold change (vs control) [5]: 0.19 log2
- Log2 Fold change (vs control) [6]: 0.09 log2
- Log2 Fold change (vs control) [7]: -3.75 log2
- Log2 Fold change (vs control) [8]: -0.22 log2
- Log2 Fold change (vs control) [9]: 0.26 log2
- Log2 Fold change (vs control) [10]: 0.92 log2
- Log2 Fold change (vs control) [11]: -2.22 log2
- Log2 Fold change (vs control) [12]: -0.07 log2
- Log2 Fold change (vs control) [13]: 0.06 log2
- Log2 Fold change (vs control) [14]: 0.15 log2
- Log2 Fold change (vs control) [15]: -0.17 log2
- Log2 Fold change (vs control) [16]: 0.23 log2
- Log2 Fold change (vs control) [17]: -0.26 log2
- Log2 Fold change (vs control) [18]: -0.49 log2
- Log2 Fold change (vs control) [19]: -1.44 log2
- Log2 Fold change (vs control) [20]: -0.12 log2
- Log2 Fold change (vs control) [21]: -0.01 log2
- Log2 Fold change (vs control) [22]: 0.21 log2
- Log2 Fold change (vs control) [23]: 1.28 log2
- Log2 Fold change (vs control) [24]: 0 log2
- Log2 Fold change (vs control) [25]: 0.35 log2
- Log2 Fold change (vs control) [26]: 0.46 log2
- Log2 Fold change (vs control) [27]: 0.28 log2
- Log2 Fold change (vs control) [28]: 0.47 log2
- Log2 Fold change (vs control) [29]: -0.45 log2
- Log2 Fold change (vs control) [30]: -0.95 log2
- Log2 Fold change (vs control) [31]: -0.33 log2
- Log2 Fold change (vs control) [32]: -0.2 log2
- Log2 Fold change (vs control) [33]: 0.09 log2
- Log2 Fold change (vs control) [34]: -4.09 log2
- Log2 Fold change (vs control) [35]: 0.11 log2
- Log2 Fold change (vs control) [36]: -0.47 log2
- Log2 Fold change (vs control) [37]: -0.97 log2
- Log2 Fold change (vs control) [38]: 0.23 log2
- Log2 Fold change (vs control) [39]: 1.06 log2
- Log2 Fold change (vs control) [40]: 0.21 log2
- Log2 Fold change (vs control) [41]: -0.89 log2
- Log2 Fold change (vs control) [42]: -0.28 log2
- Log2 Fold change (vs control) [43]: 0.19 log2
- Log2 Fold change (vs control) [44]: -0.5 log2
- Log2 Fold change (vs control) [45]: 1.08 log2
- Log2 Fold change (vs control) [46]: 0.76 log2
- Log2 Fold change (vs control) [47]: 0.62 log2
- Log2 Fold change (vs control) [48]: -0.2 log2
- Log2 Fold change (vs control) [49]: -3.81 log2
- Log2 Fold change (vs control) [50]: -0.34 log2
- Log2 Fold change (vs control) [51]: -0.26 log2
- Log2 Fold change (vs control) [52]: 0.43 log2
- Log2 Fold change (vs control) [53]: 0.37 log2
- Log2 Fold change (vs control) [54]: 0.1 log2
- Log2 Fold change (vs control) [55]: -0.25 log2
- Log2 Fold change (vs control) [57]: 1 log2
- Log2 Fold change (vs control) [58]: -0.38 log2
Substance: FlagBirA-ClpP (Y118A) (from UniProt P06709 1-321; Q16740 57-277) (enzyme)
- Log2 Fold change (vs control) [56]: 0.21 log2
